For this experiment, the target named is human GITR (full length, on cells) (human) (UniProt Q9Y5U5). Briefly: FACS dot plot, spleen cells of GITR humanized (B-hGITR) mice, FITC against mTcRβ PerCP [panel hIgG1].
human GITR (full length, on cells) (human), sequence (Q9Y5U5 26-241): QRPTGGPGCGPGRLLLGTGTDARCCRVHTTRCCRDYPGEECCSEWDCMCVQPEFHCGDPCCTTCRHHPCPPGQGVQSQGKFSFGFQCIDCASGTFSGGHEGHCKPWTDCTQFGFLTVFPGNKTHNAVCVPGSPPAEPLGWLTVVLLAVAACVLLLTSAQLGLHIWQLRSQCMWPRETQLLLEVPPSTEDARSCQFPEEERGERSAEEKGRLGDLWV

In the case of isotype control IgG (antibody), the FL3-H, FL1-H subset (percent of cells in the FITC-high, mTcRβ-positive gate) came to 1.08%.

The values are drawn from patent US20220119541A1.
